Assay results reported in the supplement of paper PMC10567573.

B1: ESR2 (parent)
chain: KSCQACRLRKCYEVGMVKCGSRRE
B2: FAM189A2 (parent)
chain: PRCDLVDLGEGKICFCCEEFQPAK

Variants of: B1
Test: protein stability index of a GFP-peptide fusion (GPS, HEK-293T) (PSI 1-6); higher = more stable
Settings: c terminus: a fixed tail appended
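Further: lentivirally expressed fusions sorted by FACS into six bins by GFP to DsRed ratio, PSI derived from sequencing read proportions per bin multiplied by bin number.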

Protein stability index: each site, then its substitutions
S2: G 1.96, V 1.92, D 1.98, I 1.46, Q 1.96, T 1.92, R 2.43, Y 2.94, E 1.96, A 1.6, W 1.91, C 1.54, L 1.56, P 1.86
V17: N 3.53, Q 2.1, F 1.94, I 2.21, Y 1.78, R 1.82, G 2.27, S 2.16, W 1.86, K 2.54, E 1.89, M 2.37, L 1.61, D 1.6, P 1.82, T 1.98, C 3.72, H 2.97
Y12: A 2.9, H 2.03, K 2.11, M 1.41, E 2.85, I 1, N 2.43, Q 2.06, W 2.24, S 2.29, R 1.9, T 2.77
K10: H 2.16, Q 1.68, A 1.81, E 2.12, N 2.27, Y 1.79, M 1.48, V 1.89, R 1.56, G 1.78, I 1.98, D 1.49, T 2.23, W 1.74, L 2.24, F 1.26
C6: M 2.44, F 1.96, I 2.6, R 3.05, L 2.48, V 2.42, S 2.25, P 3.03, T 2.62, N 2.94, W 2, K 3.22, A 2.57, G 2.88
R22: H 1.97, G 1.99, W 2.05, V 1.97, I 1.83, F 1.41, S 1.91, D 3.02, P 2.33, N 1.91, M 2.21, L 1.33, E 2.98, Y 1.66
K1: C 2.56, Y 1.45, T 2.1, Q 2.42, N 1.59, W 1.65, D 1.75, S 3.19, M 1.87, P 2.35, V 2.31, I 2.78
Q4: P 1.68, K 1.84, M 2.18, H 1.83, D 1.81, S 2.11, F 1.32, C 1.72, V 2.04, G 1.58, R 2.15
R9: L 2.14, Y 2.38, S 1.8, T 2.66, G 1.95, W 1.93, F 2.56, M 1.93, N 1.88, H 1.92, E 2.03, D 1.75, C 1.61
K18: T 1.82, E 2.09, Y 1.49, V 2.79, Q 1.7, W 1.35, H 2.33, A 1.89, I 1.49, P 1.72, D 2.2, G 1.8, L 1.73, S 2.85
M16: I 1.13, D 1.66, T 2.14, R 2.4, V 1.74, P 1.96, A 1.76, Q 1.95, S 2.44, Y 1.85, C 3.01, N 2.15, W 1.88
S21: R 2.09, E 2.25, F 1.5, W 1.5, I 1.69, C 3.46, D 1.75, Q 1.32, V 1.56, M 2.13, T 2.31, P 2.29, A 2.24, G 1.89, K 2.39
E24: S 1.79, K 2.45, D 2.28, H 1.68, T 2.12, M 1.67, Q 1.88, A 2.44, G 2.92, F 1.91, R 2.24
C19: S 1.61, P 2.28, D 2.51, K 1.76, V 1.89, N 2.04, Y 1.43, W 3.71, T 2.81, L 1.89, M 1.9, Q 1.53, I 1.4
R7: W 1.89, Q 1.66, E 2.69, V 1.89, T 2.46, S 1.89, I 1.64, K 2.03, P 2.17, L 1.74, N 1.77, Y 2.58, H 1.81, C 2.5
G15: F 2.41, L 1.55, K 2.18, P 2.35, I 1.79, E 1.38, V 1.25, Y 1.81, D 2.19, T 2.03, C 2.25, M 1.96, N 1.97, H 1.86
C3: V 2.54, E 3.21, D 2.69, L 2.57, K 2.59, F 2.2, A 2.66, N 2.71, H 2.65, P 2.92, I 2.39, T 2.57, W 1.85, S 3.24, G 2.97
L8: K 2.66, E 2.47, V 1.73, H 2.4, M 2.24, G 2.36, N 2.74, Y 2.35, R 2.18, S 2.83, A 2.17, D 1.61, I 1.64
C11: A 1.82, F 2.52, L 2.31, S 1.68, H 1.74, R 2.5, V 2.47, G 2.4, D 2.72, K 2.3, M 2.6
R23: D 2.48, I 2.43, H 1.96, G 1.79, V 2.41, K 1.96, C 2.39, S 2.25, Y 2.09, Q 2.21, P 2.2, M 1.98, E 2.33
A5: Y 1.64, V 1.93, S 2, P 2.3, I 2.34, G 1.84, W 1.77, H 2.15, D 2.09, K 2.48, T 2.11, Q 2.11, F 1.55, E 2.39, N 1.81
E13: A 1.93, C 2.46, Y 1.38, T 1.96, R 1.95, G 2.3, N 1.93, V 1.6, W 1.49, S 2.42, H 2.89, M 1.7, P 1.69
G20: L 1.73, N 2.12, E 2.41, R 2.49, Y 2.15, W 1.48, A 1.91, F 2.01, D 1.87, V 1.87, S 1.81, P 1.84
V14: G 1.94, Y 1.7, I 1.67, E 1.9, R 2.27, C 2.17, H 4.01, M 1.77, F 1.57, D 2.17, K 2.5, P 1.62, W 1.92, Q 2.17, T 1.96

Variants of: B2
Test: as above
Settings: c terminus: a fixed tail appended

Protein stability index, by site and new letter:
K24: Q 2.25, V 3.06, S 2.72, R 2.89, T 3, W 1.99, P 3.05, Y 2.52, N 3.37
